# In FireProtDB (doi:10.1002/pro.5560060808):
# Settings: Aspergillus oryzae (strain ATCC 42149 / RIB 40), Thermal, DSC, reversible: yes, whole UniProt chain shown
# [1] = pH 4.5, Acetic acid-Sodium acetate 0.1 M
protein,measurement,setting,value
"Guanyl-specific ribonuclease T1 wild type, P00651 (protein) MMYSKLLTLTTLLLPTALALPSLVERACDYTCGSNCYSSSDVSTAQAAGYQLHEDGETVGSNSYPHKYNNYEGFDFSVSSPYYEWPILSSGDVYSGGSPGADRVVFNENNQLAGVITHTGASGNNFVECT",Tm,"pH 3, glycine-HCl 0.1 M",52.4 °C
same,heat capacity change of unfolding,"pH 3, glycine-HCl 0.1 M",1.2 kcal/mol/K
same,unfolding enthalpy (calorimetric),"pH 3, glycine-HCl 0.1 M",99.3 kcal/mol
same,Tm,"pH 3.5, glycine-HCl 0.1 M",54.7 °C
same,heat capacity change of unfolding,"pH 3.5, glycine-HCl 0.1 M",1.44 kcal/mol/K
same,unfolding enthalpy (calorimetric),"pH 3.5, glycine-HCl 0.1 M",103 kcal/mol
same,Tm,[1],59.2 °C
same,heat capacity change of unfolding,[1],1.17 kcal/mol/K
same,unfolding enthalpy (calorimetric),[1],109 kcal/mol
same,Tm,"pH 6, MES 0.1 M",62.4 °C
same,heat capacity change of unfolding,"pH 6, MES 0.1 M",1.39 kcal/mol/K
same,unfolding enthalpy (calorimetric),"pH 6, MES 0.1 M",112 kcal/mol
